Results as given in article PMC4117452, “Immunolocalization of Anti-Hsf1 to the Acetabular Glands of Infectious Schistosomes Suggests a Non-Transcriptional Function for This Transcriptional Activator”.

Biological target: T1, MBP-SmHsf1 (Schistosoma mansoni, UniProt G4VTC5 1-658)
T1 sequence: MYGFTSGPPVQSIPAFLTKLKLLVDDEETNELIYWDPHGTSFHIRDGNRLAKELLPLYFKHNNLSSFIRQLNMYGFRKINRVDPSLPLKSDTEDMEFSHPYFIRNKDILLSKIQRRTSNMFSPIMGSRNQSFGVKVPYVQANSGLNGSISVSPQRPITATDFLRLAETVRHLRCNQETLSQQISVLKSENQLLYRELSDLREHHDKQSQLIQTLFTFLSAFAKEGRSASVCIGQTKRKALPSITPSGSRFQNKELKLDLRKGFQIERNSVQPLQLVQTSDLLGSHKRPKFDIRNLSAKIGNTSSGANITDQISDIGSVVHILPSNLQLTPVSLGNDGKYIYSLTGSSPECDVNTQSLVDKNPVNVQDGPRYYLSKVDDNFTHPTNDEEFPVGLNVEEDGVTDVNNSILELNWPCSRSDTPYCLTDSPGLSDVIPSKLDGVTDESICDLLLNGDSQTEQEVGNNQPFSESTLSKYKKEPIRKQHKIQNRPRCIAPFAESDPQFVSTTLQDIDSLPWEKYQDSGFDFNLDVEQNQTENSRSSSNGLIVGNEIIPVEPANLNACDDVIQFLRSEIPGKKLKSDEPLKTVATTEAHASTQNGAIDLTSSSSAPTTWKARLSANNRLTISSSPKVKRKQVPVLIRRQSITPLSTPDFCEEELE
Assay: competition; EMSA vs oKI068(ds), 250-fold unlabeled; 'great affinity'; LightShift EMSA binding buffer with glycerol, MgCl2, poly-dIdC, NP-40 (concentrations, pH and temperature not stated), 30 min; 5% native PAGE, 0.5x TBE
Conditions: protein: recombinant; tags: N-terminal MBP (pMAL-c5X); chain copies: 3; blunt

B1: oKI073/074 consensus HSE (dsDNA)
DNA 1: GATCGTCATAGAAAGTTCTAGAACGATC
DNA 2: GATCGTTCTAGAACTTTCTATGACGATC
binding result: binds
